Measured values taken from publication PMC6825352, “Ghd8 controls rice photoperiod sensitivity by forming a complex that interacts with Ghd7”.

What was measured:
[1] = target: HD1 (MBP-HD1);GHD8 (His-GHD8, NF-YB) (Oryza sativa (rice);Oryza sativa (rice), UniProt Q9FDX8;Q0J7P4 1-395;1-297, |); experiment: EMSA; 5 mM Tris pH 7.5, 25 mM KCl, 0.5 mM DTT, 5 mM MgCl2, 2.5% glycerol, 0.05% NP-40, 50 ng/uL poly(dI-dC), room temperature 20 min, 5% polyacrylamide gel; conditions: protein: recombinant;recombinant; tags: MBP (pMAL-c2X; text says MBP 'at the down-stream');N-terminal thioredoxin-His (pET-32); copies: 1;1; label: 3'-biotin; blunt
HD1 (MBP-HD1);GHD8 (His-GHD8, NF-YB), sequence (Q9FDX8 whole entry, chain 1 of 2): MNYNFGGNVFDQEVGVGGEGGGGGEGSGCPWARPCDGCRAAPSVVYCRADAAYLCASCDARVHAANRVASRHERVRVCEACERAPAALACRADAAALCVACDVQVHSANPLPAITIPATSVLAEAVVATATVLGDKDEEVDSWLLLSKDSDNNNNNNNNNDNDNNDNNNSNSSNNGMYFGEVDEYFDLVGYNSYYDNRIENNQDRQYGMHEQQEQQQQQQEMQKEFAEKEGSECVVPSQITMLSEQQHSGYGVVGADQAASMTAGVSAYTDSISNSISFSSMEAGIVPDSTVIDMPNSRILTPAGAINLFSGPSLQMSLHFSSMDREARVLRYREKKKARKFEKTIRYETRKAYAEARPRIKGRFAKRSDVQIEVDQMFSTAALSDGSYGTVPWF
HD1 (MBP-HD1);GHD8 (His-GHD8, NF-YB), sequence (Q0J7P4 whole entry, chain 2 of 2): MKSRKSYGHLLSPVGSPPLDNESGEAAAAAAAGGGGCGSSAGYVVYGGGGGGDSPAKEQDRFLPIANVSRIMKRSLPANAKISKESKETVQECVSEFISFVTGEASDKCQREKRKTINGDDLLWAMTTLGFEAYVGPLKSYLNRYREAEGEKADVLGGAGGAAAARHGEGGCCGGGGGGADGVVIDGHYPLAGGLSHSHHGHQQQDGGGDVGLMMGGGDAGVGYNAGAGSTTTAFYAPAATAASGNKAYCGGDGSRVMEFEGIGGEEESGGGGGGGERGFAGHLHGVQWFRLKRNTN

[2] = target: HD1 (MBP-HD1);GHD8 (His-GHD8, NF-YB);OsHAP5b (His-HAP5b, NF-YC) (Oryza sativa (rice);Oryza sativa …, UniProt Q9FDX8;Q0J7P4;Q655V5 1-395;1-297;1-250, ||); experiment: EMSA; considerably stronger signal than HD1 alone; 50x/100x unlabeled F1 competitor; 5 mM Tris pH 7.5, 25 mM KCl, 0.5 mM DTT, 5 mM MgCl2, 2.5% glycerol, 0.05% NP-40, 50 ng/uL poly(dI-dC), room temperature 20 min, 5% polyacrylamide gel; conditions: protein: recombinant;recombinant;recombinant; tags: MBP (pMAL-c2X); copies: 1;1;1; label: 3'-biotin; blunt
HD1 (MBP-HD1);GHD8 (His-GHD8, NF-YB);OsHAP5b (His-HAP5b, NF-YC), sequence (Q9FDX8 whole entry, chain 1 of 3): as the sequence (Q9FDX8 whole entry, chain 1 of 2) above
HD1 (MBP-HD1);GHD8 (His-GHD8, NF-YB);OsHAP5b (His-HAP5b, NF-YC), sequence (Q0J7P4 whole entry, chain 2 of 3): as the sequence (Q0J7P4 whole entry, chain 2 of 2) above
HD1 (MBP-HD1);GHD8 (His-GHD8, NF-YB);OsHAP5b (His-HAP5b, NF-YC), sequence (Q655V5 whole entry, chain 3 of 3): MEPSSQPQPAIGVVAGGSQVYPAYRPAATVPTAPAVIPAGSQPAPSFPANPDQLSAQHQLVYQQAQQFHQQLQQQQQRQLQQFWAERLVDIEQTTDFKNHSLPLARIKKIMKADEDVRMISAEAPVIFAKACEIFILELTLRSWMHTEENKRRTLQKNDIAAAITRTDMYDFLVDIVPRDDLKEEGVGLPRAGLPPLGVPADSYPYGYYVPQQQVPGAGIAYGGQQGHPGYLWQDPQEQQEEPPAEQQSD

B1: F1 (dsDNA)
DNA 1: ATCTGGTTGCAATGGGGATGGCCAATGAGGAGTCG
DNA 2: CGACTCCTCATTGGCCATCCCCATTGCAACCAGAT
- binding result [1]: binds
- binding result [2]: binds
